Data: patent US6083709

Assays:
Experiment in all cases: p53 two-site sandwich ELISA, sample tested at 100 ng/ml
[1] = biological target: hrIL-1β (human (by the printed prefix hr; not spelled out)) (UniProt P01584)
[2] = biological target: bInsulin (bovine (by the printed prefix b; not spelled out)) (UniProt P01317)
[3] = biological target: hTransferin (human (by the printed prefix h; not spelled out)) (UniProt P02787)
[4] = biological target: hPDGF (human (by the printed prefix h; not spelled out))
[5] = biological target: hrIGF-1 (human (by the printed prefix hr; not spelled out)) (UniProt P05019)
[6] = biological target: hrIL-4 (human (by the printed prefix hr; not spelled out)) (UniProt P05112)
[7] = biological target: hrGM-CSF (human (by the printed prefix hr; not spelled out)) (UniProt P04141)
[8] = biological target: hrIL-6 (human (by the printed prefix hr; not spelled out)) (UniProt P05231)
[9] = biological target: hrIL-1α (human (by the printed prefix hr; not spelled out)) (UniProt P01583)
[10] = biological target: hG-CSF (human (by the printed prefix h; not spelled out)) (UniProt P09919)
[11] = biological target: hrTNFα (human (by the printed prefix hr; not spelled out)) (UniProt P01375)
[12] = biological target: hrIL-2 (human (by the printed prefix hr; not spelled out)) (UniProt P60568)
[13] = biological target: hrIL-3 (human (by the printed prefix hr; not spelled out)) (UniProt P08700)

Measured: Assay Results (apparent mutant p53 read in the p53 ELISA)

monoclonal antibody from clone PAb240
< 50 pg/mL: all assays above
